± gives the standard deviation of the averaged measurements.
Test: total protein half-life in vivo (active degradation + dilution); higher = more stable protein
[1] = E. coli NCM3722 delta-clpP delta-lon delta-hslV, growth: N-lim chemostat, doubling time 6 h
[2] = E. coli NCM3722 delta-clpP, growth: N-lim chemostat, doubling time 6 h
[3] = E. coli NCM3722 delta-hslV, growth: N-lim chemostat, doubling time 6 h
[4] = E. coli NCM3722 delta-lon, growth: N-lim chemostat, doubling time 6 h
[5] = E. coli NCM3722 delta-smpB, growth: N-lim chemostat, doubling time 6 h
[6] = wild type E. coli NCM3722, growth: C-lim chemostat, doubling time 3 h
[7] = wild type E. coli NCM3722, growth: C-lim chemostat, doubling time 6 h
[8] = wild type E. coli NCM3722, growth: C-lim chemostat, doubling time 12 h
[9] = wild type E. coli NCM3722, growth: N-lim chemostat, doubling time 6 h
[10] = wild type E. coli NCM3722, growth: N-lim chemostat, doubling time 12 h
[11] = wild type E. coli NCM3722, growth: P-lim chemostat, doubling time 6 h
[12] = wild type E. coli NCM3722, growth: P-lim chemostat, doubling time 12 h

| Sequence | total protein half-life in vivo [1] | total protein half-life in vivo [2] | total protein half-life in vivo [3] | total protein half-life in vivo [4] | total protein half-life in vivo [5] | total protein half-life in vivo [6] | total protein half-life in vivo [7] | total protein half-life in vivo [8] | total protein half-life in vivo [9] | total protein half-life in vivo [10] | total protein half-life in vivo [11] | total protein half-life in vivo [12] |
| --- | --- | --- | --- | --- | --- | --- | --- | --- | --- | --- | --- | --- |
| MKQYLIAPSILSADFARLGEDTAKALAAGADVVHFDVMDNHYVPNLTIGPMVLKSLRNYGITAPIDVHLMVKPVDRIVPDFAAAGASIITFHPEASEHVDRTLQLIKENGCKAGLVFNPATPLSYLDYVMDKLDVILLMSVNPGFGGQSFIPQTLDKLREVRRRIDESGFDIRLEVDGGVKVNNIGEIAAAGADMFVAGSAIFDQPDYKKVIDEMRSELAKVSHE [P0AG07] | 5.23 ± 0.28 h | 4.58 ± 0.58 h | 5.6 ± 1.7 h | 4.69 ± 0.12 h | 4.27 ± 0.7 h | 3.2 ± 0.21 h | 5.43 ± 0.99 h | 11.4 ± 0.82 h | 4.84 ± 0.16 h | 7.52 ± 0.15 h | 5.72 ± 0.56 h | 12 ± 0.16 h |
| MKKIGVILSGCGVYDGSEIHEAVLTLLAISRSGAQAVCFAPDKQQVDVINHLTGEAMTETRNVLIEAARITRGEIRPLAQADAAELDALIVPGGFGAAKNLSNFASLGSECTVDRELKALAQAMHQAGKPLGFMCIAPAMLPKIFDFPLRLTIGTDIDTAEVLEEMGAEHVPCPVDDIVVDEDNKIVTTPAYMLAQNIAEAASGIDKLVSRVLVLAE [P0ABU5] | 5.23 ± 0.27 h | 4.46 ± 0.24 h | 4.76 ± 0.49 h | 5.05 ± 0.41 h | 4.5 ± 0.09 h |  | 6.9 ± 1.3 h | 10.8 ± 0.44 h | 4.79 ± 0.54 h | 7.44 ± 0.33 h | 5.67 ± 0.31 h | 13.4 ± 0.84 h |
| MSAGSPKFTVRRIAALSLVSLWLAGCSDTSNPPAPVSSVNGNAPANTNSGMLITPPPKMGTTSTAQQPQIQPVQQPQIQATQQPQIQPVQPVAQQPVQMENGRIVYNRQYGNIPKGSYSGSTYTVKKGDTLFYIAWITGNDFRDLAQRNNIQAPYALNVGQTLQVGNASGTPITGGNAITQADAAEQGVVIKPAQNSTVAVASQPTITYSESSGEQSANKMLPNNKPTATTVTAPVTVPTASTTEPTVSSTSTSTPISTWRWPTEGKVIETFGASEGGNKGIDIAGSKGQAIIATADGRVVYAGNALRGYGNLIIIKHNDDYLSAYAHNDTMLVREQQEVKAGQKIATMGSTGTSSTRLHFEIRYKGKSVNPLRYLPQR [P0ADA3] | 5.97 ± 0.43 h | 6.2 ± 0.18 h | 6.44 ± 0.29 h | 7.02 ± 0.32 h | 6.32 ± 0.11 h | 2.926 ± 0.019 h | 5.92 ± 0.28 h | 12.8 ± 3.5 h | 6.01 ± 0.067 h |  | 5.81 ± 0.16 h | 12 ± 0.81 h |
| MLTTLIYRSHIRDDEPVKKIEEMVSIANRRNMQSDVTGILLFNGSHFFQLLEGPEEQVKMIYRAICQDPRHYNIVELLCDYAPARRFGKAGMELFDLRLHERDDVLQAVFDKGTSKFQLTYDDRALQFFRTFVLATEQSTYFEIPAEDSWLFIADGSDKELDSCALSPTINDHFAFHPIVDPLSRRIIAFEAIVQKNEDSPSAIAVGQRKDGEIYTADLKSKALAFTMAHALELGDKMISINLLPMTLVNEPDAVSFLLNEIKANALVPEQIIVEFTESEVISRFDEFAEAIKSLKAAGISVAIDHFGAGFAGLLLLSRFQPDRIKISQELITNVHKSGPRQAIIQAIIKCCTSLEIQVSAMGVATPEEWMWLESAGIEMFQGDLFAKAKLNGIPSIAWPEKK | 5.85 ± 0.18 h |  |  | 1.79 ± 0.32 h |  |  | 2.73 ± 2.2 h |  |  |  | 0.443 h |  |
| MMYHIPGVLSPQDVARFREQLEQAEWVDGRVTTGAQGAQVKNNQQVDTRSTLYAALQNEVLNAVNQHALFFAAALPRTLSTPLFNRYQNNETYGFHVDGAVRSHPQNGWMRTDLSATLFLSDPQSYDGGELVVNDTFGQHRVKLPAGDLVLYPSSSLHCVTPVTRGVRVASFMWIQSMIRDDKKRAMLFELDNNIQSLKSRYGESEEILSLLNLYHNLLREWSEI | 4.14 ± 0.34 h | 2.79 h | 2.86 h | 3.12 ± 0.055 h | 2.31 ± 0.3 h | 3 ± 0.17 h | 4.856 ± 0.037 h | 6.39 h |  | 4.16 h | 5.85 ± 0.63 h | 11.4 ± 1.4 h |

From the supplement of paper PMC11246515
